# Results taken from US20220193132A1.
# Tests used:
# [1] = target: recombinant human EGFRvIII protein (extracellular domain), native (human) (UniProt P00533); assay: ELISA Exp 2, purified mAb 1 ug/ml
# [2] = target: recombinant human wild type EGFR protein (extracellular domain), denatured (human) (UniProt P00533); assay: ELISA Exp 2, purified mAb 1 ug/ml
# [3] = target: wild type human EGFR, full length, overexpressed on U87MG cells (human) (UniProt P00533); assay: cell-based or functional assay
# [4] = target: EGFRvIII, full length, overexpressed on glioblastoma cells (human) (UniProt P00533); assay: cell-based or functional assay
# [5] = target: recombinant human wild type EGFR protein (extracellular domain), native (human) (UniProt P00533); assay: ELISA Exp 2, purified mAb 1 ug/ml
# [6] = target: recombinant human EGFRvIII protein (extracellular domain), denatured (human) (UniProt P00533); assay: ELISA Exp 2, purified mAb 1 ug/ml
# [7] = target: wild type human EGFR, full length, overexpressed on U87MG cells (human) (UniProt P00533); assay: flow cytometry dose-response on U87MG-EGFRwt cells, apparent Kd
# [8] = target: EGFRvIII, full length, overexpressed on glioblastoma cells (human) (UniProt P00533); assay: flow cytometry dose-response on U87MG-EGFRvIII cells, apparent Kd
# [9] = target: recombinant human wild type EGFR protein (extracellular domain), native (human) (UniProt P00533); assay: ELISA Exp 1, mAb supernatant
# [10] = target: recombinant human EGFRvIII protein (extracellular domain), native (human) (UniProt P00533); assay: ELISA Exp 1, mAb supernatant
# [11] = target: recombinant human wild type EGFR protein (extracellular domain), denatured (human) (UniProt P00533); assay: ELISA Exp 1, mAb supernatant
# [12] = target: recombinant human EGFRvIII protein (extracellular domain), denatured (human) (UniProt P00533); assay: ELISA Exp 1, mAb supernatant
ELISA absorbance 405 nm [1] [A405],ELISA absorbance 405 nm [2] [A405],"% internalization (pHrodo surrogate assay, vs 225 mAb) [4] [%]",ELISA absorbance 405 nm [5] [A405],ELISA absorbance 405 nm [6] [A405],Kd [7] [nM],Kd [8] [nM],ELISA absorbance 405 nm [9] [A405],ELISA absorbance 405 nm [10] [A405],ELISA absorbance 405 nm [11] [A405],ELISA absorbance 405 nm [12] [A405],"% internalization (pHrodo surrogate assay, vs 225 mAb) [3] [%]",Substance,"% survival (DM1 secondary-conjugate ADC surrogate assay, vs mouse IgG) [3] [%]","% survival (DM1 secondary-conjugate ADC surrogate assay, vs mouse IgG) [4] [%]"
-0.001,0,–,–,–,–,–,–,–,–,–,–,Neg ctrl mouse mAb (antibody),> 98,> 98
–,–,< 3,–,–,–,–,–,–,–,–,–,Neg ctrl mIgG (antibody),–,–
1.5,–,100,1.32,0.004,2.2,2.2,1.2,1.08,-0.01,0.001,101,225 mAb (ATCC HB-8508) (antibody),52,49
